Data taken from US8715970B2, “Enzymatically catalyzed method of preparing mono-acylated polyols” (BASF SE, priority 2009, dated 2014).

Columns and labels:
Assay type in all cases: biochemical
[1] = Enzyme-catalyzed acylation of 1,2-ethanediol with ethyl acetate as acyl donor (Example 2); conditions: for Maximum monoester yield: 1,2-ethanediol 20 mM in ethyl acetate (acyl donor and solvent), 29° C.; for Conversion at 3:1 (monoester:diester) / Conversion at 9:1 (monoester:diester): 1,2-ethanediol 20 mM in ethyl acetate; for Conversion at 3:1 (monoester:diester): product distribution 75%; for Conversion at 9:1 (monoester:diester): product distribution 90%
Method: (§1) Each diol was dissolved to a concentration of 20 mM together with 5 mM of 3-hexanone in ethyl acetate, ≧99% from Fluka, which was used as acyl donor and solvent. Reactions were started by adding 4 ml reaction solution to 20 mg enzyme carrier beads loaded with either wild-type or T40A mutated CALB. Reactions were run at 29° C. on a HLC rotating thermo block. Aliquots of 50 μl were taken, filtered through wool in a Pasteur pipette and diluted with 50 μl ethyl acetate prior to analysis. The 3-hexanon used as internal standard were present in the reaction solution throughout both reaction and analysis.
(§2) 5 mM 3-hexanone was used as internal standard in the reaction mixtures together with 20 mM diol. Aliquots were taken during the reaction by taking 50 μl of reaction sample. The samples were filtered though wool together with 50 μl ethyl acetate, thereby any remaining enzyme were removed and the reaction samples were diluted by a factor of 2 prior to analysis.
(§3) The reactions catalyzed by the T40A-mutant were rerun with 100 mg enzyme carrier beads for determination of maximum monoester yield. The reactions with 2-methyl-1,3-propanediol and 2-phenyl-1,3-propanediol were rerun at 100 mM concentration of diol and 50 mg enzyme carrier beads, both with CALB wild type and CALB T40A-mutant. This was done in order to determine the enantiomeric excess.
(§4) All reactions were analyzed on GC, Hewlett Packard 5890 series II. Two different 25 m×0.32 mm WCOT fused silica columns were used, depending on the different substrates and products that were analyzed. A polar GC-column with CP Chirasil-Dex CB coating was used for the reactions with 1,2-ethanediol and 1,3-propanediol. A non-polar GC-column with CP-SIL 5CB coating was used for the reactions with 1,4-butanediol, 2-methyl-1,3-propanediol and 2-phenyl-1,3-propanediol.
(§5) The response factor for each diol was determined in relationship to 3-hexanone. When all diol and mono-ester had converted to di-ester, the response factor for the di-ester could be determined in relationship to […]. The concentration of mono-ester in each reaction was determined by subtracting the concentration of di-ester from the starting concentration of diol.
(§6) A great difference in concentration between acyl donor and diol was accomplished in the reactions by using ethyl acetate as solvent and acyldonor and a diol concentration of 20 mM. Therefore the reactions was considered to irreversible, following the reaction scheme:
(§7) [formula] A, B and C corresponds to diol, monoester and diester, respectively. k1 and k2 respectively corresponds to the reaction rates of the acylation of diol and monoester.
(§8) The reaction rates are dependent on enzyme concentrations and the kcat/KM towards the substrates. By fitting the concentrations measured over time into the equations and using the enzyme concentration determined by active site titration, the following results were obtained.

[2] = Enzyme-catalyzed acylation of 1,3-propanediol with ethyl acetate as acyl donor (Example 2); conditions: for Conversion at 3:1 (monoester:diester) / Conversion at 9:1 (monoester:diester) / Maximum monoester yield: 1,3-propanediol 20 mM in ethyl acetate; for Maximum monoester yield: 29° C.
Method: as §1, §2, §3, §4, §5, §6, §7, §8

[3] = Enzyme-catalyzed acylation of 2-phenyl-1,3-propanediol with ethyl acetate as acyl donor (Example 2); conditions: 2-Ph-1,3-propanediol 20 mM in ethyl acetate; for Maximum monoester yield: 29° C.
Method: as §1, §2, §3, §4, §5

[4] = Enzyme-catalyzed acylation of 1,4-butanediol with vinyl butyrate as acyl donor (Example 3); conditions: 1,4-butanediol 10 mM, 200 mM vinyl butyrate in MTBE, 29° C.
Method: (§9) Each diol was dissolved to a concentration of 10 mM together with 2 mM of decane ≧98% from Fluka and 200 mM vinyl butyrate >99% from Fluka in MTBE 99.5% from Lab-Scan, which was used as acyl donor and solvent. Reactions were started by adding 4 ml reaction solution to 20 mg enzyme carrier beads loaded with either wild-type or T40A mutated CALB. Reactions were run at 29° C. on a HLC rotating thermo block. Aliquots of 50 μl were taken, filtered through wool in a Pasteur pipette and diluted with 50 μl ethyl acetate prior to analysis. The decane used as internal standard were present in the reaction solution throughout both reaction and analysis.
(§10) All reactions were analyzed on GC, Hewlett Packard 5890 series II. A 25 m×0.32 mm WCOT fused silica non-polar GC-column with CP-SIL 5CB coating was used for the reactions.
as §5, with “decane.” for “3-hexanone.”

[5] = Enzyme-catalyzed acylation of 2-methyl-1,3-propanediol with vinyl butyrate as acyl donor (Example 3); conditions: 2-methyl-1,3-propanediol 10 mM, 200 mM vinyl butyrate in MTBE, 29° C.
Method: as §9, §10
as §5, with “decane.” for “3-hexanone.”

[6] = Acylation of 1,2-ethanediol in competition with 1-butanol (Example 4)
Method: (§11) Additionally, 1-butanol, ≧99.5% from Riedel-de Haën, was used as a competing substrate.
(§12) 25 mM decane ≧98% from Fluka, was used as internal standard.
(§13) Two different acyl donors were used:
(§14) Ethyl acetate, ≧99% from Fluka, used as both solvent and acyl donor
(§15) 1 M Vinyl butyrate, >99% from Fluka, together with in MTBE, 99.5% from Lab-Scan, used as solvent.
(§16) Each diol was dissolved to a concentration of 100 mM together with 25 mM of decane in ethyl acetate, ≧99% from Fluka, used as acyl donor and solvent. Reactions were started by adding 3 ml reaction solution to 10 mg enzyme carrier beads loaded with wild-type CALB or 20 mg carrier beads loaded with T40A mutated CALB. Reactions were run at 29° C. in a temperature bath consisting of a HETO thermostat coupled to a Bom-roerder combined temperature bath and magnetic stirrer. 25 mM decane was used as internal standard were present in the reaction solution throughout both reaction and analysis. Aliquots of 60 μl were taken, filtered through wool in a Pasteur pipette together with 540 μl ethyl acetate prior to analysis. The filtration through wool removed any remaining enzyme from the reaction solution, and the reaction samples were diluted by a factor of 10 prior to analysis.
as §4, with “1,2-ethanediol.” for “1,2-ethanediol and 1,3-propanediol.”, “1,4-butanediol.” for “1,4-butanediol, 2-methyl-1,3-propanediol and 2-phenyl-1,3-propanediol.”
as §5, with “decane.” for “3-hexanone.”

[7] = Acylation of 1,4-butanediol in competition with 1-butanol (Example 4)
Method: as §11, §12, §13, §14, §15, §16
as §4, with “1,2-ethanediol.” for “1,2-ethanediol and 1,3-propanediol.”, “1,4-butanediol.” for “1,4-butanediol, 2-methyl-1,3-propanediol and 2-phenyl-1,3-propanediol.”
as §5, with “decane.” for “3-hexanone.”

B1: WT: non-mutated Candida antarctica lipase B (CALB), SEQ ID NO: 2, immobilized on carrier beads (protein, listed as Candida antarctica)
chain: LPSGSDPAFSQPKSVLDAGLTCQGASPSSVSKPILLVPGTGTTGPQSFDSNWIPLSAQLGYTPCWISPPPFMLNDTQVNTEYMVNAITTLYAGSGNNKLPVLTWSQGGLVAQWGLTFFPSIRSKVDRLMAFAPDYKGTVLAGPLDALAVSAPSVWQQTTGSALTTALRNAGGLTQIVPTTNLYSATDEIVQPQVSNSPLDSSYLFNGKNVQAQAVCGPLFVIDHAGSLTSQFSYVVGRSALRSTTGQARSADYGITDCNPLPANDLTPEQKVAAAALLAPAAAAIVAGPKQNCEPDLMPYARPFAVGKRTCSGIVTP
modifications: immobilized on carrier beads
**Q.** Which results are given for B1?
**A.** Maximum monoester yield [1]: 43%; Maximum monoester yield ([1]; listed as wild type): 43%; Conversion at 3:1 (monoester:diester) [1]: 17%; Conversion at 3:1 (monoester:diester) ([1]; listed as wild type): 17%; Conversion at 9:1 (monoester:diester) [1]: <9%; Conversion at 9:1 (monoester:diester) ([1]; listed as wild type): 9%; Selectivity diol/monoester ([1]; 1,2-ethanediol, ethyl acetate): 1.9; Conversion at 3:1 (monoester:diester) [2]: 19%; Conversion at 9:1 (monoester:diester) [2]: 10%; Maximum monoester yield [2]: 33%; Selectivity diol/monoester ([2]; 1,3-propanediol, ethyl acetate, listed as wild type): 0.94; Selectivity diol/monoester ([2]; 1,3-propanediol, ethyl acetate, listed as wild type CALB): 0.9; Conversion at 3:1 (monoester:diester) [3]: 46%; Maximum monoester yield [3]: 52%; Maximum monoester yields [4]: 25%; Maximum monoester yields [5]: 34%; Initial reaction rates ([6]; ethyl acetate): 0.081 mol/g/min; Initial reaction rates ([6]; vinyl butyrate): 0.41 mol/g/min; Initial reaction rates ([7]; ethyl acetate): 0.065 mol/g/min; Initial reaction rates ([7]; vinyl butyrate): 0.16 mol/g/min

B2: T40A: CALB mutant with single mutation Thr40Ala (SEQ ID NO: 4) (protein)
chain: LPSGSDPAFSQPKSVLDAGLTCQGASPSSVSKPILLVPGXGTTGPQSFDSNWIPLSAQLGYTPCWISPPPFMLNDTQVNTEYMVNAITTLYAGSGNNKLPVLTWSQGGLVAQWGLTFFPSIRSKVDRLMAFAPDYKGTVLAGPLDALAVSAPSVWQQTTGSALTTALRNAGGLTQIVPTTNLYSATDEIVQPQVSNSPLDSSYLFNGKNVQAQAVCGPLFVIDHAGSLTSQFSYVVGRSALRSTTGQARSADYGITDCNPLPANDLTPEQKVAAAALLAPAAAAIVAGPKQNCEPDLMPYARPFAVGKRTCSGIVTP
modifications: T40 Mutant
**Q.** For B2, which Maximum monoester yield [1] is on record?
**A.** Its Maximum monoester yield is 77%.

**Q.** What about the “Conversion at 3:1 (monoester:diester)” value [1] of the same molecule?
**A.** The value was 99%.

**Q.** And the “Conversion at 3:1 (monoester:diester)” value ([1]; listed as T40A CALB)?
**A.** Its value is 99%.

**Q.** What about the “Conversion at 9:1 (monoester:diester)” value [1] of the same molecule?
**A.** The value was 78%.

**Q.** What about the “Conversion at 9:1 (monoester:diester)” value ([1]; listed as T40A CALB) of the same molecule?
**A.** Its value is 78%.

**Q.** What about the Selectivity diol/monoester ([1]; 1,2-ethanediol, ethyl acetate) of the same molecule?
**A.** The Selectivity diol/monoester was 7.7.

**Q.** And the “Selectivity ratio diol/monoester T40A/WT” value ([1]; 1,2-ethanediol, ethyl acetate)?
**A.** Its value is 4.0.

**Q.** What about the Selectivity diol/monoester ([1]; 1,2-ethanediol, ethyl acetate, listed as T40A CALB) of the same molecule?
**A.** Its Selectivity diol/monoester is 7.6.

**Q.** What about the “Conversion at 3:1 (monoester:diester)” value [2] of the same molecule?
**A.** The value was 22%.

**Q.** And the “Conversion at 9:1 (monoester:diester)” value [2]?
**A.** The value was 19%.

**Q.** What about the Maximum monoester yield [2] of the same molecule?
**A.** Its Maximum monoester yield is 50%.

**Q.** What about the Selectivity diol/monoester ([2]; 1,3-propanediol, ethyl acetate) of the same molecule?
**A.** Its Selectivity diol/monoester is 2.4.

**Q.** What about the “Selectivity ratio diol/monoester T40A/WT” value ([2]; 1,3-propanediol, ethyl acetate) of the same molecule?
**A.** The value was 2.6.

**Q.** What about the “Conversion at 3:1 (monoester:diester)” value [3] of the same molecule?
**A.** The value was greater than 95%.

**Q.** And the Maximum monoester yield [3]?
**A.** Its Maximum monoester yield is 55-65%.

**Q.** And the Maximum monoester yields [4]?
**A.** Its Maximum monoester yields is 44%.

**Q.** And the Maximum monoester yields [5]?
**A.** The Maximum monoester yields was 56%.

**Q.** And the Initial reaction rates ([6]; ethyl acetate)?
**A.** Its Initial reaction rates is 0.002 mol/g/min.

**Q.** What about the “Rate ratio, T40A/WT” value ([6]; ethyl acetate) of the same molecule?
**A.** The value was 2.5%.

**Q.** What about the “Selectivity towards diol over 1-butanol, compared with wild type CALB” value (from here on “Selectivity towards diol over 1-butanol”) ([6]; ethyl acetate as acyl donor and solvent (FIG. 9A)) of the same molecule?
**A.** Its value is “higher”.

**Q.** What about the Initial reaction rates ([6]; vinyl butyrate) of the same molecule?
**A.** The Initial reaction rates was 0.065 mol/g/min.

**Q.** What about the “Rate ratio, T40A/WT” value ([6]; vinyl butyrate) of the same molecule?
**A.** The value was 16%.

**Q.** What about the “Selectivity towards diol over 1-butanol” value ([6]; vinyl butyrate, MTBE (FIG. 10A)) of the same molecule?
**A.** Its value is “higher”.

**Q.** What about the Initial reaction rates ([7]; ethyl acetate) of the same molecule?
**A.** The Initial reaction rates was 0.0008 mol/g/min.

**Q.** What about the “Rate ratio, T40A/WT” value ([7]; ethyl acetate) of the same molecule?
**A.** The value was 1.2%.

**Q.** And the “Selectivity towards diol over 1-butanol” value ([7]; ethyl acetate as acyl donor and solvent (FIG. 9B))?
**A.** Its value is “higher”.

**Q.** And the Initial reaction rates ([7]; vinyl butyrate)?
**A.** The Initial reaction rates was 0.016 mol/g/min.

**Q.** What about the “Rate ratio, T40A/WT” value ([7]; vinyl butyrate) of the same molecule?
**A.** The value was 9.6%.

**Q.** And the “Selectivity towards diol over 1-butanol” value ([7]; vinyl butyrate, MTBE (FIG. 10B))?
**A.** Its value is “higher”.
